In the RNAGym collection of RNA variant scans (doi:10.1073/pnas.2313332121):
This sample holds only a part of the variants without activity.

B1: TPR 5TU (parent)
chain: GGAUCUUCUCGAUCUAACAAAAAAGACAAAUCUGCCACAAAGCUUGAGAGCAUCUUCGGAUGCAGAGGCGGCAGCCUUCGGUGGCGCGAUAGCGCCAACGUUCUCAACUAUGACACGCAAAACGCGUGCUCCGUUGAAUGGAGUUUAUCAUG

Variants of: B1
Assay: polymerase ribozyme fitness, log enrichment relative to wild type (log ratio); higher = more active; in vitro selection for triplet polymerase activity
How it was run: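 Fitness measures genotype enrichment against wild-type enrichment on a logarithmic scale, with inverse-variance-weighted averaging of replicates. The logarithm is base 2, and genotypes were kept only with ≥10 input reads and ≥1 read per output in Illumina sequencing. The sequenced libraries came from one triplicate in vitro selection round, including frozen incubation at −7 °C, of PCR-built, transcribed mutant libraries of each subunit of a heterodimeric triplet polymerase ribozyme.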

Variant	polymerase ribozyme fitness (log ratio)
GGAUCUUCUCGAUCUAACAAAAAAGAGAAAUCUGCCACAAAGCUUGAGCUCAUUUUCGGAUGCAGAGGCGGCAGCCUUCGGUGGCGGGAUAGCGCCAACGUUCUCAACUAUGACACGCAAAACGCGUGCUCCGUUGAAUGGAGUUUAUCAUG [C27G A49C G50U C54U C87G]	≤ -4.2
GGAUCUUCUCGAUCUAACAAAAAAGAGAAAUCUGCCACAAAGCUUGAGAGCAUCUUCGGAUGCAGAGGCGGAAGCCUUCGGUGGCGCGAUAGCGCAAACGUUCUCAUCUAUGACACGCAAAACGCGUGCUCCGUUGAAUGGAGUUUAUCAUG [C27G C72A C96A A107U]	≤ -4.2
GGAUCUUCUCGAUCUAACAAAAAAGAGCAAUCUGCCACAAAGCUUGAAAGCAUCAUCGGAUGCAGAGCCGGCAGCCUUCGGUGGCGUGAUAGCGCCAACGUUCUCAAGUAUGACACGCAAAACGCGUGCUCCGUUGAAUGGAGUUUAUCAUG [C27G A28C G48A U55A G68C C87U C108G]	≤ -4.2
GGAUCUUCUCGAUCUAACAAAAAAGAGAAAUCUGCCACAAAGCUUGAGAGCAUAUUCGGAUGCAGAGGCGGCAGCCUUCGGUGGCGCGAUAGAGCCAACGUUCUCAACUAUGACUCGCAAAACGCGUGCUCCGUUGAAUGGAGUUUAUCAUG [C27G C54A C93A A115U]	≤ -4.2
GGAUCUUCUCGAUCUAACAAAAAAGAGAAAUCUGCCACAAAGCUUGAGAGCAUCUUCGGAUGAAGAGGCGGCAGCCUUCGGUGGUGAGAUAGCGCCAACGUUCUCAACUAUGACACGCAAAACGCGUGCUCCGUUAACUGGAGUUUAUCAUG [C27G C63A C85U C87A G136A A138C]	≤ -4.2
GGAUCUUCUCGAUCUAACAAAAAAGAGAAAUCUGCCAUAAAGCUUGAGCGCAUCUUCGGAUGCACAGGCGGCAGCCUUCGGUGGCGGGAUAGCGCCAACGUUCUCAACUAUGAAACGCGAAACGCGUGCUCCGUUGAAUGGAGUAUAUCAUG [C27G C38U A49C G65C C87G C114A A119G U145A]	-4.07
GGAUCUUCUCGAUCUAACAAAAAAGAGAAAUCUGGCACAAAGCUUGAGCGCAUCUUCGGAUGCAGAGGCCGCAGCCUUAGGUGGCGCGAUAGCGGCAACGUUCUCAACUAUGACACGCAAAACGCGUGCUCCGUUGAAUGGAGUUUAUCAUG [C27G C35G A49C G70C C79A C95G]	≤ -4.2
GGAUCUUCUCGAUCUAACAAAAAAGAGAAAUCUGCCACAAAGCUUGAGAGCAUCUUCGGAUGCAGAGGCGGCAGCCUUCGGUGGCGCGAUAGCGCCAACGUUCUCUACUAUGACACGCAAAACGCGUGCUCCGUUGAAUGGAGUUUAUCAUG [C27G A106U]	-3.92
GGAUCUUCUCGAUCUAACAAAAAAGAGCAAUCUGCCACAAUGCUUGAGAGCAUCUUCGGAUGCAGAGGCGGCAGCCUUCGGUGGCGCGAUGGUGCCAACGUUCUCAACUAUGACACGCAAAACGCGUGCUCCGUUGAAUGGAGUUUAUCAUG [C27G A28C A41U A91G C93U]	≤ -4.2
GGAUCUUCUCGAUCUAACAAAAAAGAGAAAUCUGCCACAAAGCUUGAGAGUAUCUUCGGAUGCAGAGGCGGCAGCCUUCCGUGGCUCGAUAGCGCCAACGUUCUCAACUAUGACACGCAAAACGCGUGCUCCGUUGAAUGGAGUUUAUCAUG [C27G C51U G80C G86U]	≤ -4.2
GGAUCUUCUCGAUCUAACAAAAAAGAGAAAUCUGCCACACAGCUUGAAAGCAUCUUCGGAUGAAGAGGCUGCAGCCUUCGAUGGCGCGAUAACGCCAACGUUCUCAACUAUGACACGCAAAACGCGUGCUCCGUUGAAUGGAGUUUAUCAUG [C27G A40C G48A C63A G70U G81A G92A]	≤ -4.2
GGAUCUUCUCGAUCUAACAAAAAAGAGAAAUCUGCCACAAAGUUUGAGAGCAUCUUCGGAUGCAGAGGCGGCAGGCUGCGGUGGCGCGAUAGCGCCAACGUUCUCAACUAUGACACGCAAAACGCGUGGUCCGUUGAAUGGAAUUUAUCAUG [C27G C43U C75G U78G C129G G143A]	≤ -4.2
GGAUCUUCUCGAUCUAACAAAAAAGAGAAAUCUGCCACAACGCUUGAGAGCAUGUUCGGAUGCAGAGGCGGCAGCCUUCGGUGGCGGGAUAGCGCCAACGUUCUCAACUAUGAGACGCAAAACGAGUGCUCCGUUGAAUGGAGUUUAUCAUG [C27G A41C C54G C87G C114G C125A]	≤ -4.2
GGAUCUUCUCGAUCUAACAAAAAAGAAAAAUCUGCCACAAAGCUUGAGAGCAUCUUCGGAUGCAGAGGCGGCAGCCUUCGGUGGCGCGAGAGCGCCAACGUUCUCAUCUAUGACACGCAAAACGCGUGCUCCGUUGAAUGGAGUUUAUCAUG [C27A U90G A107U]	≤ -4.2
GGAUCUUCUCGAUCUAACAAAAAAGAGAAAUUUGCUACAAAGCUUGAGAGCAUCUUCGGAUGCAGAGGCGGCAGCCUUCGGUGGCGCAAUAGCGCCAAUGUUCUCAACUAUGACACGCAAAACGCGUGCUCCGUUGAAUGUAGUUUAUCAUC [C27G C32U C36U G88A C99U G141U G152C]	-4.05
GGAUCUUCUCGAUCUAACAAAAAAGAGAAAUCUGCCACCAAGCUUGAGAGCAUCUUCGCAUGCAGAGGCGGCAGCCUUCGGUGGGGCGAUAGCGCCAACGUUCUGAACUAUGACACGCAAAACGCGUGCUCCGUUGAAUGGAGUUUAUCAUG [C27G A39C G59C C85G C105G]	≤ -4.2
GGAUCUUCUCGAUCUAACAAAAAAGAGAAAUCUGCCACUAAGCUUGAGAGCAUCUUCGGAUGCAGAGGCGGCAACCUUCGGUGGCGGGAUAGCGCCAACGUGCUCAACUAUGACACGCAAAACGCGUGCUCCGUUGAAUGGAGUUUAUCAUG [C27G A39U G74A C87G U102G]	≤ -4.2
GGAUCUUCUCGAUCUAACAAAAAAGAAAAAUCUGCCACAAAGCUUGAGAGCAUCUUCGGAUGCAGAGGCGGCAGCCUUCGGGGGCGGGAUAGCACCAACGUUCUCAACUAUGACACGCAAAACGCGUGCUCCGUAGAAUGGAGUUUAUCAUG [C27A U82G C87G G94A U135A]	≤ -4.2
GGAUCUUCUCGAUCUAACAAAAAAGAGAAAUCUGCCACAAAGCUUGAGAGCAUCUUCGGAUGCAGAGGCGGUAGCCUUCGGUUGCGCGAUUGUGCCAACGUUCUCAACUAUGACACGCAAAACGCGUGCUCCGUUGAAUGGAGUUUAUCAUG [C27G C72U G83U A91U C93U]	≤ -4.2
